Columns and labels:
Conditions in all cases: both partners purified
[1] = biological target: T1, Shiga toxin 1 (Stx1) (Escherichia coli (STEC), strain not …, UniProt P08026;P69179); test: SPR; […]; HBS-EP pH 7.4; 25 °C; 30 uL/min; […]; Langmuir 1:1 model; BIAcore T200; in duplicate
T1 construct: source: bought: Tufts University School of Medicine; copies: 1 + 5

[2] = biological target: Stx2 toxin (Escherichia coli (STEC), strain not …, UniProt P09385;P09386); test: ELISA; […]; room temperature; in triplicate
[3] = biological target: T1, Shiga toxin 1 (Stx1); test: ELISA; […]; room temperature; in triplicate

T1 sequence (P69179 whole entry, looked up, chain 1 of 2): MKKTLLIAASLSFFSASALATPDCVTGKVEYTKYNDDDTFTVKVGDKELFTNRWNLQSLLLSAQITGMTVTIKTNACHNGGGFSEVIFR
T1 sequence (P08026 whole entry, looked up, chain 2 of 2): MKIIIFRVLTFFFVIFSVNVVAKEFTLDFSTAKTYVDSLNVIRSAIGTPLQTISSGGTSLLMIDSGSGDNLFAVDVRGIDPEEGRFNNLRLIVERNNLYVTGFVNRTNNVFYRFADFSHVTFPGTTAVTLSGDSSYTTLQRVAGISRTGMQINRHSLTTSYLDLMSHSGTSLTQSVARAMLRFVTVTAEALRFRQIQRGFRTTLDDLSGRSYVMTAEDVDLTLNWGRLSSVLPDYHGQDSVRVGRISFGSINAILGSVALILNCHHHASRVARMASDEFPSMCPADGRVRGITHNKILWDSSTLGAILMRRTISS
Stx2 toxin, sequence (P09386 whole entry, looked up, chain 1 of 2): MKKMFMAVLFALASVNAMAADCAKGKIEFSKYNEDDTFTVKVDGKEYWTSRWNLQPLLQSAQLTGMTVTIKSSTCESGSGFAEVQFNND
Stx2 toxin, sequence (P09385 whole entry, looked up, chain 2 of 2): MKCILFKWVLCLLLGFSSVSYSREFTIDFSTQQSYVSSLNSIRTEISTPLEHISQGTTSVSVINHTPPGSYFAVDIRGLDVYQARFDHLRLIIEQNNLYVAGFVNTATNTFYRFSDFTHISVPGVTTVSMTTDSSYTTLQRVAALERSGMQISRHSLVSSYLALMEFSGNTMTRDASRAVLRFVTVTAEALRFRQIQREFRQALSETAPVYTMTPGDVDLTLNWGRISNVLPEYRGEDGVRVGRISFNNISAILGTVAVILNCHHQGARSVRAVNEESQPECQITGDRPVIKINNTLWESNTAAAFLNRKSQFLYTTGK

B1: scFvStx1 (scFv, V domains shown)
VH: EVQLQQSGPELVKPGTSVKMSCKASGYTFTDYFIHWVKQSHGKSLEWIGYIYPKNDGNDYNQKFKGKATLTVDKSSSTGYMELRSLTSEDSAVYYCARSRGYYGALDYWGQGTSVTVSR
VL: DLQLTQSPATLSVNPGDSVSLSCRASQSIRNDLHWYQQKSHESPRLLIKSVSQSISGIPSRFSGSGSGTDFTLSINSVETEDFGMYFCQQSYSWPLTFGAGTK
notes: also called scFvStx1(II); new scFvStx1; source: E. coli BL21 (DE3) pLysS, periplasmic expression, purified (IMAC)
[1]
  Kd: 226 nM
[2]
  binding result: binds
[3]
  EC50: 600 nM

— article PMC6698835 (Antibodies, 2018)
